# Test results from patent US20250230235A1 (NOVELTY NOBILITY, published 2025).
# B1: 2G4 antibody (antibody, human IgG1, kappa, V domains shown)
# VH: QVQLVESGGGVVQPGRSLRLSCAASGFTFSRYGMHWVRQAPGKGLEWVAVIWYDGTNKDYTDSVRGRFTISRDNSKNTLYLQMNSLRAEDTAVYYCAREDWAEAFDMWGQGTTVTVSS
# VL: not shown
# Biological target: human c-Kit (wild type) on the cell surface of LAD2 cells (human, UniProt P10721 26-976)
# Assay: cell-based or functional assay
# Sequence of human c-Kit (wild type) on the cell surface of LAD2 cells (P10721 26-976): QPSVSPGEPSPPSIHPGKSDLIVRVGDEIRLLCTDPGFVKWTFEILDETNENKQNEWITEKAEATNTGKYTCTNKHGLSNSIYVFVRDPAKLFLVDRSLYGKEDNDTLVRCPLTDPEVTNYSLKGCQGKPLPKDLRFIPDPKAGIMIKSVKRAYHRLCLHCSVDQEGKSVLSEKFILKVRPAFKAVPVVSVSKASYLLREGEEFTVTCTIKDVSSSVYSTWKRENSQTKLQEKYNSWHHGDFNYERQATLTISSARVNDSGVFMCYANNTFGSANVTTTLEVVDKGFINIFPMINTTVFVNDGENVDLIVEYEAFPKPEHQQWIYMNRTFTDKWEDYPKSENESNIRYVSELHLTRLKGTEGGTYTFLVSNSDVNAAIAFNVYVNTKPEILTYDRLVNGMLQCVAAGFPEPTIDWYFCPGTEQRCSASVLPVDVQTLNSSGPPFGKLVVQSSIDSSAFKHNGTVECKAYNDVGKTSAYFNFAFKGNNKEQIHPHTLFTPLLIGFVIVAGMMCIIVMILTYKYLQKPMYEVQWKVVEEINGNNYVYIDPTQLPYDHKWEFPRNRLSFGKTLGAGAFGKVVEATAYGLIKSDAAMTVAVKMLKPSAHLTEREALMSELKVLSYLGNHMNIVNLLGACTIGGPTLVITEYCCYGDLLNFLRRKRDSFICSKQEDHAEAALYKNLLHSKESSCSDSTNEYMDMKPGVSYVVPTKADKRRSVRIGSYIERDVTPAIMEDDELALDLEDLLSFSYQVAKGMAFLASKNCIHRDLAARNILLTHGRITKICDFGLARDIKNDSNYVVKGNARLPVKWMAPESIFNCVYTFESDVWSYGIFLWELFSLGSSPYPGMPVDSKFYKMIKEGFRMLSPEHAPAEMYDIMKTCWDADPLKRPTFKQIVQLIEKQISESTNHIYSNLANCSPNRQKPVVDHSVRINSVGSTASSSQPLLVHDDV
binder,measurement,value
B1,IC50 of degranulation (β-hexosaminidase release) increased by SCF and streptavidin in IgE-sensitized LAD2 cells,0.00636 µg/mL
same,half-maximal inhibitory concentration (IC50) of SCF-mediated proliferation of LAD2 cells,0.058 µg/mL
